In US20230365658A1:

Target: SARS-CoV-2 spike (S) glycoprotein, Omicron BA.4.6 (SARS-CoV-2), P0DTC2
Assay: cell-based or functional assay

B1: mAb_v2130Vanderbilt_184_20220114_00112 (antibody, V domains shown)
VH: EVQLVESGGGLVKPGGSLRLSCAASGFTFRDVWMSWVRQAPGKGLEWVGRIKSKIDGGTTDYAAPVKGRFTISRDDSKNTLYLQMNSLKTEDTAVYYCTTAGSYYYDTVGPELPEGKFDYWGQGTLVTVSS
VL: not shown
B1 gave a pseudoviral neutralization IC50 of 1260 ng/mL.
